In this experiment the target is T1, focal adhesion kinase (mouse (endogenous in NIH3T3), UniProt P34152 1-1052).
T1 construct: focal adhesion kinase (FAK), endogenous in NIH3T3 fibroblasts, immunoprecipitated with anti-FAK Ab (BD Bioscience); also called FAK; Ptk2; source: endogenous, NIH3T3 cell extract
Put plainly: co-IP; NIH3T3 cell extracts (500 µg, TX-100 lysis buffer) immunoprecipitated with anti-FAK Ab, WB with anti-HA Ab; cells without serum 16 h, then 10% serum (in suspension), FN, or FN plus serum for 20 or 60 min. The conditions noted are these: partners not purified.

T1 sequence (P34152 whole entry): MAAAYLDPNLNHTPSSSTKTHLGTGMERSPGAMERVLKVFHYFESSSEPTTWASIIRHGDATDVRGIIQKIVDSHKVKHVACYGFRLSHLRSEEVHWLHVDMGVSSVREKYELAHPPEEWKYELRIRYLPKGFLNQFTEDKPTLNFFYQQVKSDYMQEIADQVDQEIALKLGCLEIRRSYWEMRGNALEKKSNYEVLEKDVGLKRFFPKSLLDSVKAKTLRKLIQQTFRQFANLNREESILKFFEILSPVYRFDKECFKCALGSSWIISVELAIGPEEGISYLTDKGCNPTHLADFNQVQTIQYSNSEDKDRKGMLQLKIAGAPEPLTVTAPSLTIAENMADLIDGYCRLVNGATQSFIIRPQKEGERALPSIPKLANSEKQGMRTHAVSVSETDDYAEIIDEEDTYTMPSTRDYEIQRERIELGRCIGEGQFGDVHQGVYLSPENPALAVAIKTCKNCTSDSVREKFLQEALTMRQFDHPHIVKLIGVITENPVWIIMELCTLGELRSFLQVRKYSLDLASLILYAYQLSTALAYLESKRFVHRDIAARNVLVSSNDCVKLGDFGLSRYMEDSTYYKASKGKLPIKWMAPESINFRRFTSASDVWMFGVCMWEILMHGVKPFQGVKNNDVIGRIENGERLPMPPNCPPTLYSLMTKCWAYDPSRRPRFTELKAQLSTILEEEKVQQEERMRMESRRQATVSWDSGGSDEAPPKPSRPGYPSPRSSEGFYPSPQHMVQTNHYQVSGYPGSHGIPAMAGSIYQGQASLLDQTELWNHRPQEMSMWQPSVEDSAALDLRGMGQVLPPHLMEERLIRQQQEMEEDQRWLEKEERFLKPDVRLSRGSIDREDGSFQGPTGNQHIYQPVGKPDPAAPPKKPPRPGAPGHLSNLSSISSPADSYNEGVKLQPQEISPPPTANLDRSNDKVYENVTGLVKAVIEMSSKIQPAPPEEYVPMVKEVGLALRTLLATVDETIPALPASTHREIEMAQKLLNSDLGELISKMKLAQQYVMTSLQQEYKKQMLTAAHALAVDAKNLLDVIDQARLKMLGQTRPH

B1: recombinant HA-tagged p85β (regulatory subunit of phosphoinositide 3-kinase) (natural protein)
chain: not shown
notes: p85β regulatory subunit of PI3K, murine cDNA (from pT7/T3-U19) subcloned into pSG5; the p85β ATG codon was replaced with a proline residue and the ATG of the HA tag kept; The only change is the first methionine to proline at the junction with the N-terminal HA tag; also called rHAp85β; HA-p85β; source: NIH3T3, transfected (pSG5), in cell extract; not shown: HA, N-terminal, kept
For B1, the “fold amount co-precipitated with FAK relative to rHAp85α” value stood at 5 fold.

The values above are taken from publication PMC4197441, “Phosphoinositide 3-kinase p85beta regulates invadopodium formation” (Biology Open, 2014).
